This test concerns the target Argonaute 1 (Ago1) (human (endogenous in PC-3, LNCaP, HCT116)) (UniProt Q9UL18). Nature of the test: co-IP; nuclear extracts from PC-3 cells; IP with anti-Ago1 (Wako 2A7) or anti-Ago2 (Wako 4G8), immunoblot for RNAP II; 10 mM Tris-HCl pH 8.0, 150 mM NaCl, 1 mM EDTA, 1 mM DTT, 0.1% NP-40, overnight at 4°C, protein G dynabeads; also done after transfection with siControl, siDicer or siDrosha (50 nM, 72 hrs).

On to “RNA polymerase II (from UniProt P24928 1-1970) (complex)”, for which the decrease of the ratio of bound RNAP II to nuclear Ago1 after siDicer was determined as 70%.

The values above are taken from paper PMC3784563.
